Experimental data as given in the supplement of paper PMC10065799, “High-throughput profiling of sequence recognition by tyrosine kinases and SH2 domains using bacterial peptide display” (eLife, 2023).

Tests used:
Grb2 SH2 = Grb2 SH2 (UniProt P62993); test: SH2 binding enrichment of the phosphorylated peptide, bacterial display (enrichment ratio); higher = better substrate or ligand; peptides without Tyr show the background
c-Src SH2 = test: as above
SHP2-C SH2 = test: as above
Fer (mouse) = test: phosphorylation enrichment, bacterial display (enrichment ratio); higher = better substrate or ligand; peptides without Tyr show the background
Hck = Hck (UniProt P08631); test: as above
c-Src = test: as above
c-Abl (mouse) = test: as above
MERTK = MERTK (UniProt Q12866); test: as above
MERTK, sequence (Q12866 whole entry, looked up): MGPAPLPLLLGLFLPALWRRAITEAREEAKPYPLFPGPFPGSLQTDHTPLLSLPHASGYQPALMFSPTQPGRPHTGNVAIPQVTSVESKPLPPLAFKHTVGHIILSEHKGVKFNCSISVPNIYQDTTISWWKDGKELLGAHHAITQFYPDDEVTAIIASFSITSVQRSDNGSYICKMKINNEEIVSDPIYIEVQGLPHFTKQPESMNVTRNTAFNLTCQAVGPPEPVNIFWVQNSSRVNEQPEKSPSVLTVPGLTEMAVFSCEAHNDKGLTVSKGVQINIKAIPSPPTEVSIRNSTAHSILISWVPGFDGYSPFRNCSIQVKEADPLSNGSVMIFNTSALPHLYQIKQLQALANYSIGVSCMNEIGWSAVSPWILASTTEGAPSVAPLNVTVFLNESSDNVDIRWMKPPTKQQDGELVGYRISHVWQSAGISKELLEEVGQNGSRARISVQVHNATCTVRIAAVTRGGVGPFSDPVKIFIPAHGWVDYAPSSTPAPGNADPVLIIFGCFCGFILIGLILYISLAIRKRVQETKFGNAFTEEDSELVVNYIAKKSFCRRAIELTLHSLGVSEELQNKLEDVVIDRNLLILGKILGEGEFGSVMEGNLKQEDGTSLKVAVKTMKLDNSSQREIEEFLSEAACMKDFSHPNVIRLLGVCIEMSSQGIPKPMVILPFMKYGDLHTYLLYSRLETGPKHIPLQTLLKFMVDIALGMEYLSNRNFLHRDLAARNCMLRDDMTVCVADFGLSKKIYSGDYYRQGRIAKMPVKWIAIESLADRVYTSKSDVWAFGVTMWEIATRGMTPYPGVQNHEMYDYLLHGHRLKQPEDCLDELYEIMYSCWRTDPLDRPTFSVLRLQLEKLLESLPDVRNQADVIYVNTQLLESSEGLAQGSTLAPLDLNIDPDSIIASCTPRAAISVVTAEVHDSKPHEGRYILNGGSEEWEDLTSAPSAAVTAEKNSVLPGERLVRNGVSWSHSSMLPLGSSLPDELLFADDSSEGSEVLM

Fes = Fes (UniProt P07332); test: as above
EPHB1 = EPHB1 (UniProt P54762); test: as above
EPHB1, sequence (P54762 whole entry, looked up): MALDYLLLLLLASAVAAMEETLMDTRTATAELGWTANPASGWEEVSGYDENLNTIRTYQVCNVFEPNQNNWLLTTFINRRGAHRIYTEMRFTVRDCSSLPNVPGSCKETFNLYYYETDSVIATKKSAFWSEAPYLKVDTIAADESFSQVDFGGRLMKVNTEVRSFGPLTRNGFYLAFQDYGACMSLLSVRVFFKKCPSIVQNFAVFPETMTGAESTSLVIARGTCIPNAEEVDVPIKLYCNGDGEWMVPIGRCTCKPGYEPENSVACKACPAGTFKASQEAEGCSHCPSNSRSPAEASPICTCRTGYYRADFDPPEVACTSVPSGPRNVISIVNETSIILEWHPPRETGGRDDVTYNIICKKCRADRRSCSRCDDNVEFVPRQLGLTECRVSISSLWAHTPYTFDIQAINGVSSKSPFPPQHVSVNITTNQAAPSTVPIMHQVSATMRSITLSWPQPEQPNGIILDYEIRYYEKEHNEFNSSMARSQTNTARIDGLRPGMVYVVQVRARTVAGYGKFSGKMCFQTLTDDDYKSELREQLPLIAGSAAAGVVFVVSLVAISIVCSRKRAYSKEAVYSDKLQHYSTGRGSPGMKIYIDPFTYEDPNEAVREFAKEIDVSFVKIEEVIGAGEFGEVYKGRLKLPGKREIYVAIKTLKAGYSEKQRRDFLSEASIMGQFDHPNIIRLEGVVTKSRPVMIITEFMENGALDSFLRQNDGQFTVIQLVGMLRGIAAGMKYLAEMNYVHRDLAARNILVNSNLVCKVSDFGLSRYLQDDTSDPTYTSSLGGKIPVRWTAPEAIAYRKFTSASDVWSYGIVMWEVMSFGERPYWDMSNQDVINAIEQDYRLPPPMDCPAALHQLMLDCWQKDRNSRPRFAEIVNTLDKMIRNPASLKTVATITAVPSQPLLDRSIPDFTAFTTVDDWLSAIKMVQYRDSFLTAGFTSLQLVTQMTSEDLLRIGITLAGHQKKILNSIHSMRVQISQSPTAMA

Fyn = Fyn (UniProt P06241); test: as above
Fyn, sequence (P06241 whole entry, looked up): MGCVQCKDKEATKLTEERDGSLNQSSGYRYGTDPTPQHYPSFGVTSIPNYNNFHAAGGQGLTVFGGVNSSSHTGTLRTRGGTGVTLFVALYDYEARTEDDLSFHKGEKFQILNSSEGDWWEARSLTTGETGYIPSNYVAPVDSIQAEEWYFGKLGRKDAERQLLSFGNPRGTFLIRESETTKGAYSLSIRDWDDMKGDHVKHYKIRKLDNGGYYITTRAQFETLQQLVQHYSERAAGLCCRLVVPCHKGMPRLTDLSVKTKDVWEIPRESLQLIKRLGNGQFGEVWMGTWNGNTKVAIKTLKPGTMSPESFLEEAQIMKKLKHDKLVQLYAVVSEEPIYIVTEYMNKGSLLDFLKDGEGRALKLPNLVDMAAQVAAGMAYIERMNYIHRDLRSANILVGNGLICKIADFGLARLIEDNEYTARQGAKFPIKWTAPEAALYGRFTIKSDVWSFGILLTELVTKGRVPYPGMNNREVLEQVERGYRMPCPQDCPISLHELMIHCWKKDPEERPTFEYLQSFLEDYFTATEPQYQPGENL

EPHB2 = EPHB2 (UniProt P29323); test: as above
EPHB2, sequence (P29323 whole entry, looked up): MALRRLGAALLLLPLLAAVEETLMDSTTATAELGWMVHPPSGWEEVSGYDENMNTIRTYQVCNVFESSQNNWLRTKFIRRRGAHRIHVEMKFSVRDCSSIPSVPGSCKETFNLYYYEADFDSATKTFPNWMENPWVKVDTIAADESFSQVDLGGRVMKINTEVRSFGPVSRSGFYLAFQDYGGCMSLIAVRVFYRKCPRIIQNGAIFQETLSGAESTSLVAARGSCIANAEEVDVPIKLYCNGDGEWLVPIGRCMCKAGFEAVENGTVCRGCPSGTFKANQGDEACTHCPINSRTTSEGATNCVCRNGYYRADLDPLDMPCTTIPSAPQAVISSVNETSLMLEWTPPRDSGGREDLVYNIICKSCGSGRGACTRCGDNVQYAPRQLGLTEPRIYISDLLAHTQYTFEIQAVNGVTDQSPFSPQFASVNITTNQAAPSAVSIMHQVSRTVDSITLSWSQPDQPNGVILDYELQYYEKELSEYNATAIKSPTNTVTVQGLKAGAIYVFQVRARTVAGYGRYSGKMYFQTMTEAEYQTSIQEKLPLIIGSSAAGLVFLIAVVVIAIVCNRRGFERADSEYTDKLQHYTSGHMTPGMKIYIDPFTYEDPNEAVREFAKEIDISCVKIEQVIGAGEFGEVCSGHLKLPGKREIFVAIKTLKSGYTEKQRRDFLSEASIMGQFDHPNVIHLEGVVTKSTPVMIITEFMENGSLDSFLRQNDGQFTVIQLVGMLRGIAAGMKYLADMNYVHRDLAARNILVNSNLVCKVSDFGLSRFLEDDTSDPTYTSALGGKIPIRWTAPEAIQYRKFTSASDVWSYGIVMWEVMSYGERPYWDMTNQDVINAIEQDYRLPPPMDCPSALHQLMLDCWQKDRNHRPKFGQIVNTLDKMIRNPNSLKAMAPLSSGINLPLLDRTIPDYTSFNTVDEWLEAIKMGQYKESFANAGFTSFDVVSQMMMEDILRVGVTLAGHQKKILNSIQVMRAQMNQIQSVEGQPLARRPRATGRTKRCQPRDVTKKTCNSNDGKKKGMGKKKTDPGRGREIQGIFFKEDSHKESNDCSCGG

AncSZ = test: as above
Jak2 = Jak2 (UniProt O60674); test: as above
Jak2, sequence (O60674 whole entry, looked up): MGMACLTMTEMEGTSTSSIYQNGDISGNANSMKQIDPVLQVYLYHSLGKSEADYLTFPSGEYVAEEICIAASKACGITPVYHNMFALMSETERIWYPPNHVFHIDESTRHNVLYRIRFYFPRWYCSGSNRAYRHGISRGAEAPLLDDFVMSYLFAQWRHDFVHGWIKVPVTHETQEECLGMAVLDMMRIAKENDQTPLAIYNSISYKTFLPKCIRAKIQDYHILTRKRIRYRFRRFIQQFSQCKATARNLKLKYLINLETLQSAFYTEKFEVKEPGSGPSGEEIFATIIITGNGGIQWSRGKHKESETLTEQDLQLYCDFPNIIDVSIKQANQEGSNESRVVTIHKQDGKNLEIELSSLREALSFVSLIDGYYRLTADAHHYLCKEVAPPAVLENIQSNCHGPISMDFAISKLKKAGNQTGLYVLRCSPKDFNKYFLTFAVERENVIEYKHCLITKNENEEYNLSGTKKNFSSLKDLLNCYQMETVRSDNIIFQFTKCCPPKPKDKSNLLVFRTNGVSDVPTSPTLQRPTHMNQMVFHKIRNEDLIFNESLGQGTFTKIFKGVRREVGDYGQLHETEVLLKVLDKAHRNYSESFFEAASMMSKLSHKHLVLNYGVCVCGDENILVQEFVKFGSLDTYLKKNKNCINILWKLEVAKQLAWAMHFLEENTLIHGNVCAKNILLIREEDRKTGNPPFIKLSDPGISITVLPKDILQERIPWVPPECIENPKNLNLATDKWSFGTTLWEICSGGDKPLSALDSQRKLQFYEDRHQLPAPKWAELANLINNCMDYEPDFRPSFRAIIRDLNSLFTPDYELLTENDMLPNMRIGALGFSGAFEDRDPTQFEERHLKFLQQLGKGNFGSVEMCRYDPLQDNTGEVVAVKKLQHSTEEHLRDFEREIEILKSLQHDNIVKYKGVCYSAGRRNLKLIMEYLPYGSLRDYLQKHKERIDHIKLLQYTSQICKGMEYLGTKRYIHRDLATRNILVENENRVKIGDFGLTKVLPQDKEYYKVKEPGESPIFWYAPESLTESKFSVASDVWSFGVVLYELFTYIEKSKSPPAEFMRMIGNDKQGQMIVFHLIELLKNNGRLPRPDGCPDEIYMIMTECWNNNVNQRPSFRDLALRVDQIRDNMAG

FGFR3 = FGFR3 (UniProt P22607); test: as above
FGFR1 = FGFR1 (UniProt P11362); test: as above
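For SH2 binding enrichment of the phosphorylated peptide, bacterial display in this document: peptide library displayed on the E. coli surface as eCPX fusions, selected cells deep-sequenced, score is each peptide's frequency after selection divided by its frequency in the input.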
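For phosphorylation enrichment, bacterial display in this document: 11-residue human phosphosite peptides and single-mutation variants displayed on the E. coli surface, counted by deep sequencing, each peptide's frequency after selection divided by its frequency in the unselected input library; frequency after pTyr selection over input frequency; kinase dosed for 20-30% of maximal phosphorylation in three min.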

Grb2 SH2, sequence (P62993 whole entry, looked up): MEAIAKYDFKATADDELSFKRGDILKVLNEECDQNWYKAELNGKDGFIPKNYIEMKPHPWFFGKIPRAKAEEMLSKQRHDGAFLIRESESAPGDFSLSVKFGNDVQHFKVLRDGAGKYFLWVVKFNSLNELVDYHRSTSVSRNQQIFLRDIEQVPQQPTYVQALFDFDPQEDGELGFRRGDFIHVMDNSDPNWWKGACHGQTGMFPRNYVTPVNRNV

Sequence: FRARAYGFRGP [CHGA_Y381]
- SH2 binding enrichment (Grb2 SH2): 0.705
- SH2 binding enrichment (c-Src SH2): 0.465
- SH2 binding enrichment (SHP2-C SH2): 0.476
- phosphorylation enrichment (Fer (mouse)): 0.532
- phosphorylation enrichment (Hck): 0.569
- phosphorylation enrichment (c-Src): 0.651
- phosphorylation enrichment (c-Abl (mouse)): 0.658
- phosphorylation enrichment (MERTK): 0.748
- phosphorylation enrichment (Fes): 0.747
- phosphorylation enrichment (EPHB1): 0.472
- phosphorylation enrichment (Fyn): 0.676
- phosphorylation enrichment (EPHB2): 0.506
- phosphorylation enrichment (AncSZ): 0.839
- phosphorylation enrichment (Jak2): 0.686
- phosphorylation enrichment (FGFR3): 0.427
- phosphorylation enrichment (FGFR1): 0.497

Sequence: RVQKRYIFDNV [RCN1_Y115]
- SH2 binding enrichment (Grb2 SH2): 0.468
- SH2 binding enrichment (c-Src SH2): 0.273
- SH2 binding enrichment (SHP2-C SH2): 0.503
- phosphorylation enrichment (Fer (mouse)): 0.381
- phosphorylation enrichment (Hck): 0.328
- phosphorylation enrichment (c-Src): 0.394
- phosphorylation enrichment (c-Abl (mouse)): 0.252
- phosphorylation enrichment (MERTK): 0.422
- phosphorylation enrichment (Fes): 0.442
- phosphorylation enrichment (EPHB1): 0.291
- phosphorylation enrichment (Fyn): 0.319
- phosphorylation enrichment (EPHB2): 0.472
- phosphorylation enrichment (AncSZ): 0.531
- phosphorylation enrichment (Jak2): 0.455
- phosphorylation enrichment (FGFR3): 0.619
- phosphorylation enrichment (FGFR1): 0.484

Sequence: KDHRDYKFQPR [SOX9_Y172_P170R_YF]
- SH2 binding enrichment (Grb2 SH2): 1.19
- SH2 binding enrichment (c-Src SH2): 0.947
- SH2 binding enrichment (SHP2-C SH2): 1.04
- phosphorylation enrichment (Fer (mouse)): 0.388
- phosphorylation enrichment (Hck): 0.421
- phosphorylation enrichment (c-Src): 0.423
- phosphorylation enrichment (c-Abl (mouse)): 0.683
- phosphorylation enrichment (MERTK): 0.583
- phosphorylation enrichment (Fes): 0.586
- phosphorylation enrichment (EPHB1): 0.426
- phosphorylation enrichment (Fyn): 0.49
- phosphorylation enrichment (EPHB2): 0.346
- phosphorylation enrichment (AncSZ): 0.543
- phosphorylation enrichment (Jak2): 0.51
- phosphorylation enrichment (FGFR3): 0.471
- phosphorylation enrichment (FGFR1): 0.462

Sequence: FGSIMYEFVGK [SLC18A1_Y251_V249I]
- SH2 binding enrichment (Grb2 SH2): 0.867
- SH2 binding enrichment (c-Src SH2): 0.676
- SH2 binding enrichment (SHP2-C SH2): 0.731
- phosphorylation enrichment (Fer (mouse)): 9.41
- phosphorylation enrichment (Hck): 5.05
- phosphorylation enrichment (c-Src): 1.44
- phosphorylation enrichment (c-Abl (mouse)): 0.508
- phosphorylation enrichment (MERTK): 6.29
- phosphorylation enrichment (Fes): 0.983
- phosphorylation enrichment (EPHB1): 1.73
- phosphorylation enrichment (Fyn): 1.09
- phosphorylation enrichment (EPHB2): 1.04
- phosphorylation enrichment (AncSZ): 1.12
- phosphorylation enrichment (Jak2): 0.703
- phosphorylation enrichment (FGFR3): 0.652
- phosphorylation enrichment (FGFR1): 0.658

Sequence: VSSPKYGSNDE [TMCC2_Y473_D476N]
- SH2 binding enrichment (Grb2 SH2): 0.722
- SH2 binding enrichment (c-Src SH2): 0.519
- SH2 binding enrichment (SHP2-C SH2): 0.657
- phosphorylation enrichment (Fer (mouse)): 0.509
- phosphorylation enrichment (Hck): 0.426
- phosphorylation enrichment (c-Src): 0.514
- phosphorylation enrichment (c-Abl (mouse)): 0.801
- phosphorylation enrichment (MERTK): 0.454
- phosphorylation enrichment (Fes): 0.912
- phosphorylation enrichment (EPHB1): 0.452
- phosphorylation enrichment (Fyn): 0.445
- phosphorylation enrichment (EPHB2): 0.536
- phosphorylation enrichment (AncSZ): 0.867
- phosphorylation enrichment (Jak2): 0.857
- phosphorylation enrichment (FGFR3): 0.619
- phosphorylation enrichment (FGFR1): 0.406

Sequence: ADYYDYGRGLS [KHDRBS3_Y304_H306R]
- SH2 binding enrichment (Grb2 SH2): 0.698
- SH2 binding enrichment (c-Src SH2): 0.564
- SH2 binding enrichment (SHP2-C SH2): 6.25
- phosphorylation enrichment (Fer (mouse)): 1.22
- phosphorylation enrichment (Hck): 7.62
- phosphorylation enrichment (c-Src): 4.1
- phosphorylation enrichment (c-Abl (mouse)): 0.967
- phosphorylation enrichment (MERTK): 3.88
- phosphorylation enrichment (Fes): 0.831
- phosphorylation enrichment (EPHB1): 15.9
- phosphorylation enrichment (Fyn): 6.79
- phosphorylation enrichment (EPHB2): 17.4
- phosphorylation enrichment (AncSZ): 3.83
- phosphorylation enrichment (Jak2): 6.26
- phosphorylation enrichment (FGFR3): 15.5
- phosphorylation enrichment (FGFR1): 17.9

Sequence: GGTTMYPGIAD [ACTC1_Y308]
- SH2 binding enrichment (Grb2 SH2): 0.871
- SH2 binding enrichment (c-Src SH2): 0.393
- SH2 binding enrichment (SHP2-C SH2): 0.783
- phosphorylation enrichment (Fer (mouse)): 0.408
- phosphorylation enrichment (Hck): 0.437
- phosphorylation enrichment (c-Src): 0.484
- phosphorylation enrichment (c-Abl (mouse)): 0.561
- phosphorylation enrichment (MERTK): 0.418
- phosphorylation enrichment (Fes): 0.722
- phosphorylation enrichment (EPHB1): 0.424
- phosphorylation enrichment (Fyn): 0.493
- phosphorylation enrichment (EPHB2): 0.419
- phosphorylation enrichment (AncSZ): 0.854
- phosphorylation enrichment (Jak2): 0.766
- phosphorylation enrichment (FGFR3): 0.576
- phosphorylation enrichment (FGFR1): 0.451

Sequence: EDGFAYVPLKD [PRIM2_Y208]
- SH2 binding enrichment (Grb2 SH2): 0.992
- SH2 binding enrichment (c-Src SH2): 0.55
- SH2 binding enrichment (SHP2-C SH2): 0.563
- phosphorylation enrichment (Fer (mouse)): 0.492
- phosphorylation enrichment (Hck): 0.519
- phosphorylation enrichment (c-Src): 0.523
- phosphorylation enrichment (c-Abl (mouse)): 0.86
- phosphorylation enrichment (MERTK): 0.42
- phosphorylation enrichment (Fes): 1.27
- phosphorylation enrichment (EPHB1): 0.567
- phosphorylation enrichment (Fyn): 0.479
- phosphorylation enrichment (EPHB2): 0.649
- phosphorylation enrichment (AncSZ): 1.25
- phosphorylation enrichment (Jak2): 1.18
- phosphorylation enrichment (FGFR3): 0.759
- phosphorylation enrichment (FGFR1): 0.501

Sequence: VPVNGYQPVPA [ROR2_Y824]
- SH2 binding enrichment (Grb2 SH2): 0.91
- SH2 binding enrichment (c-Src SH2): 0.691
- SH2 binding enrichment (SHP2-C SH2): 0.634
- phosphorylation enrichment (Fer (mouse)): 0.52
- phosphorylation enrichment (Hck): 0.422
- phosphorylation enrichment (c-Src): 0.413
- phosphorylation enrichment (c-Abl (mouse)): 0.439
- phosphorylation enrichment (MERTK): 0.382
- phosphorylation enrichment (Fes): 0.748
- phosphorylation enrichment (EPHB1): 0.554
- phosphorylation enrichment (Fyn): 0.382
- phosphorylation enrichment (EPHB2): 0.391
- phosphorylation enrichment (AncSZ): 0.859
- phosphorylation enrichment (Jak2): 0.416
- phosphorylation enrichment (FGFR3): 0.517
- phosphorylation enrichment (FGFR1): 0.55

Sequence: VHHLVYHHHHH [CACNA1H_Y519]
- SH2 binding enrichment (Grb2 SH2): 1.28
- SH2 binding enrichment (c-Src SH2): 1.15
- SH2 binding enrichment (SHP2-C SH2): 1.36
- phosphorylation enrichment (Fer (mouse)): 0.896
- phosphorylation enrichment (Hck): 0.65
- phosphorylation enrichment (c-Src): 0.602
- phosphorylation enrichment (c-Abl (mouse)): 0.963
- phosphorylation enrichment (MERTK): 0.52
- phosphorylation enrichment (Fes): 1.99
- phosphorylation enrichment (EPHB1): 0.725
- phosphorylation enrichment (Fyn): 0.546
- phosphorylation enrichment (EPHB2): 0.696
- phosphorylation enrichment (AncSZ): 0.777
- phosphorylation enrichment (Jak2): 1.66
- phosphorylation enrichment (FGFR3): 1.23
- phosphorylation enrichment (FGFR1): 0.55

Sequence: QRTMKYTTATE [MCCC1_Y41_G46E]
- SH2 binding enrichment (Grb2 SH2): 0.768
- SH2 binding enrichment (c-Src SH2): 0.521
- SH2 binding enrichment (SHP2-C SH2): 0.635
- phosphorylation enrichment (Fer (mouse)): 0.607
- phosphorylation enrichment (Hck): 0.966
- phosphorylation enrichment (c-Src): 0.706
- phosphorylation enrichment (c-Abl (mouse)): 0.496
- phosphorylation enrichment (MERTK): 0.862
- phosphorylation enrichment (Fes): 1.23
- phosphorylation enrichment (EPHB1): 0.791
- phosphorylation enrichment (Fyn): 0.781
- phosphorylation enrichment (EPHB2): 1.43
- phosphorylation enrichment (AncSZ): 1.43
- phosphorylation enrichment (Jak2): 0.975
- phosphorylation enrichment (FGFR3): 1.11
- phosphorylation enrichment (FGFR1): 0.683

Sequence: KTGDYYDLYGG [PTPN11_Y63_N58K]
- SH2 binding enrichment (Grb2 SH2): 0.858
- SH2 binding enrichment (c-Src SH2): 0.916
- SH2 binding enrichment (SHP2-C SH2): 0.665
- phosphorylation enrichment (Fer (mouse)): 0.829
- phosphorylation enrichment (Hck): 5.07
- phosphorylation enrichment (c-Src): 3.86
- phosphorylation enrichment (c-Abl (mouse)): 0.813
- phosphorylation enrichment (MERTK): 3.04
- phosphorylation enrichment (Fes): 1.09
- phosphorylation enrichment (EPHB1): 9.65
- phosphorylation enrichment (Fyn): 4.48
- phosphorylation enrichment (EPHB2): 7.72
- phosphorylation enrichment (AncSZ): 1.86
- phosphorylation enrichment (Jak2): 2.26
- phosphorylation enrichment (FGFR3): 13.8
- phosphorylation enrichment (FGFR1): 16.8

Sequence: VEYAKYGSLRG [RET_Y809]
- SH2 binding enrichment (Grb2 SH2): 0.461
- SH2 binding enrichment (c-Src SH2): 0.583
- SH2 binding enrichment (SHP2-C SH2): 2.61
- phosphorylation enrichment (Fer (mouse)): 0.395
- phosphorylation enrichment (Hck): 0.758
- phosphorylation enrichment (c-Src): 1.56
- phosphorylation enrichment (c-Abl (mouse)): 0.824
- phosphorylation enrichment (MERTK): 0.473
- phosphorylation enrichment (Fes): 0.552
- phosphorylation enrichment (EPHB1): 0.441
- phosphorylation enrichment (Fyn): 1.21
- phosphorylation enrichment (EPHB2): 0.409
- phosphorylation enrichment (AncSZ): 0.544
- phosphorylation enrichment (Jak2): 0.335
- phosphorylation enrichment (FGFR3): 0.47
- phosphorylation enrichment (FGFR1): 0.349

Sequence: VPDTNYTSDEE [STK33_Y439_A437T]
- SH2 binding enrichment (Grb2 SH2): 1.23
- SH2 binding enrichment (c-Src SH2): 0.675
- SH2 binding enrichment (SHP2-C SH2): 0.811
- phosphorylation enrichment (Fer (mouse)): 0.511
- phosphorylation enrichment (Hck): 0.552
- phosphorylation enrichment (c-Src): 0.465
- phosphorylation enrichment (c-Abl (mouse)): 0.748
- phosphorylation enrichment (MERTK): 0.437
- phosphorylation enrichment (Fes): 1.19
- phosphorylation enrichment (EPHB1): 0.562
- phosphorylation enrichment (Fyn): 0.56
- phosphorylation enrichment (EPHB2): 0.658
- phosphorylation enrichment (AncSZ): 1.23
- phosphorylation enrichment (Jak2): 1.07
- phosphorylation enrichment (FGFR3): 0.708
- phosphorylation enrichment (FGFR1): 0.606

Sequence: SVTFTYSPALN [TP53_Y126_C124Y_YF]
- SH2 binding enrichment (Grb2 SH2): 0.862
- SH2 binding enrichment (c-Src SH2): 0.457
- SH2 binding enrichment (SHP2-C SH2): 0.705
- phosphorylation enrichment (Fer (mouse)): 0.465
- phosphorylation enrichment (Hck): 0.453
- phosphorylation enrichment (c-Src): 0.392
- phosphorylation enrichment (c-Abl (mouse)): 0.675
- phosphorylation enrichment (MERTK): 0.336
- phosphorylation enrichment (Fes): 1.21
- phosphorylation enrichment (EPHB1): 0.502
- phosphorylation enrichment (Fyn): 0.424
- phosphorylation enrichment (EPHB2): 0.554
- phosphorylation enrichment (AncSZ): 1.08
- phosphorylation enrichment (Jak2): 0.991
- phosphorylation enrichment (FGFR3): 0.697
- phosphorylation enrichment (FGFR1): 0.392
